# Measured values published in FireProtDB (doi:10.1021/bi00009a035).
# Settings: Saccharomyces cerevisiae (strain ATCC 204508 / S288c), pH 7.5, 25 °C, GdnHCl, CD, Tris-HCl 20 mM, NaCl 40 mM, reversible: yes (94-100%)
# Cytochrome c isoform 1 K79R, P00044, sequence (P00044 whole entry K79R, canonical isoform): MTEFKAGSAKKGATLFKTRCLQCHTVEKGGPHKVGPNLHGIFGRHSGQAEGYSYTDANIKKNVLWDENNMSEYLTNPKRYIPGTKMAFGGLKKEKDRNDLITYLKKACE
# Cytochrome c isoform 1 K79I, P00044, sequence (P00044 whole entry K79I, canonical isoform): as the sequence (P00044 whole entry K79R, canonical isoform) above, with R79I counted along it
# Cytochrome c isoform 1 K79G, P00044, sequence (P00044 whole entry K79G, canonical isoform): as the sequence (P00044 whole entry K79R, canonical isoform) above, with R79G counted along it
# Cytochrome c isoform 1 K79A, P00044, sequence (P00044 whole entry K79A, canonical isoform): as the sequence (P00044 whole entry K79R, canonical isoform) above, with R79A counted along it
# Cytochrome c isoform 1 K79V, P00044, sequence (P00044 whole entry K79V, canonical isoform): as the sequence (P00044 whole entry K79R, canonical isoform) above, with R79V counted along it
# Cytochrome c isoform 1 wild type, P00044, sequence (P00044 whole entry, canonical isoform): as the sequence (P00044 whole entry K79R, canonical isoform) above, with R79K counted along it
# Cytochrome c isoform 1 K79L, P00044, sequence (P00044 whole entry K79L, canonical isoform): as the sequence (P00044 whole entry K79R, canonical isoform) above, with R79L counted along it
substance,measurement,setting,value
"Cytochrome c isoform 1 K79R, P00044",ddG of mutation (higher = less stable),structure 1YCC,0.03 kcal/mol
same,denaturant m value,structure 1YCC,5.25 kcal/mol/M
same,denaturant midpoint (higher = more stable),structure 1YCC,1.07 M
same,unfolding free energy,structure 1YCC,5.63 kcal/mol
"Cytochrome c isoform 1 K79G, P00044",ddG of mutation (higher = less stable),structure 1YCC,0.74 kcal/mol
same,denaturant m value,structure 1YCC,4.58 kcal/mol/M
same,denaturant midpoint (higher = more stable),structure 1YCC,1.07 M
same,unfolding free energy,structure 1YCC,4.92 kcal/mol
"Cytochrome c isoform 1 K79A, P00044",ddG of mutation (higher = less stable),structure 1YCC,0.45 kcal/mol
same,denaturant m value,structure 1YCC,4.44 kcal/mol/M
same,denaturant midpoint (higher = more stable),structure 1YCC,1.17 M
same,unfolding free energy,structure 1YCC,5.21 kcal/mol
"Cytochrome c isoform 1 K79V, P00044",ddG of mutation (higher = less stable),structure 1YCC,1.38 kcal/mol
same,denaturant m value,structure 1YCC,4.01 kcal/mol/M
same,denaturant midpoint (higher = more stable),structure 1YCC,1.07 M
same,unfolding free energy,structure 1YCC,4.28 kcal/mol
"Cytochrome c isoform 1 wild type, P00044",denaturant m value,,4.87 kcal/mol/M
same,denaturant midpoint (higher = more stable),,1.16 M
same,unfolding free energy,,5.66 kcal/mol
"Cytochrome c isoform 1 K79L, P00044",ddG of mutation (higher = less stable),structure 1YCC,0.03 kcal/mol
same,denaturant m value,structure 1YCC,4.98 kcal/mol/M
same,denaturant midpoint (higher = more stable),structure 1YCC,1.13 M
same,unfolding free energy,structure 1YCC,5.63 kcal/mol
"Cytochrome c isoform 1 K79I, P00044",ddG of mutation (higher = less stable),structure 1YCC,1.19 kcal/mol
same,denaturant m value,structure 1YCC,4.29 kcal/mol/M
same,denaturant midpoint (higher = more stable),structure 1YCC,1.04 M
same,unfolding free energy,structure 1YCC,4.47 kcal/mol
